Experimental data as given in EP1506971A1 (The Regents of the University of California, dated 2005).

Target: prokineticin receptor(s) of guinea pig ileal membrane / ileal smooth muscle (guinea pig)
Experiment: cell-based or functional assay

B1: chimeric prokineticin 21 (exons 1 and 2 of prokineticin 2, exon 3 of prokineticin 1) (ligand)
chain: AVITGACDKDSQCGGGMCCAVSIWVKSIRICTPMGKLGDSCHPLTRKVPFFRKRKHHTCPCLPNLLCSRFPDGRYRCSMDLKNINF
- EC50 of ileal smooth muscle contraction, relative to prokineticin 1 or prokineticin 2: ~8 fold
